Assay results from patent US4585754A, “Stabilization of proteins and peptides by chemical binding with chondroitin” (Valcor Scientific, Ltd., priority 1984, dated 1986).

How the values were obtained:
trypsin = assay: stability against proteolytic digestion by trypsin; format: in vitro ADME; details: 50 mcg./ml. trypsin, pH 7.8, 23 C, 10 mg./ml., after just over forty minutes
Experimental: (§1) The SOD-chondroitin sulfate A product was tested for stability against proteolytic digestion. An aqueous solution containing 10 mg./ml. of the product was incubated with 50 mcg./ml. of trypsin at pH 7.8 and 23 C, and aliquots were withdrawn from time to time and the SOD activity determined. For comparison, SOD alone with incubated with trypsin under the same conditions. After just over forty minutes, approximately 88 percent of the SOD-chondroitin product remained in the solution, compared with only about 8 percent of the unprotected SOD. This is a difference in stability of over eight-fold.

pepsin = assay: stability against proteolytic digestion by pepsin; format: in vitro ADME; details: pepsin 500 ng./ml., pH 3.5, at two minutes
Experimental: as §1
Inasmuch as trypsin is known to be a very specific protease, cleaving only at the arginine and lysine residues, a further test was carried out according to substantially the same procedure using pepsin, a much more vigorous protease. The pH was kept low (3.5), since the optimum pH for pepsin is known to about 1.0-1.5. Even at the lowest concentration of pepsin tested (500 ng./ml.), digestion was very fast, but there was some degree of protection by the chondroitin compared with unprotected SOD.

[1] = native, unmodified protein; cited from earlier work
blood glucose levels = assay: lowering blood glucose levels in mice, bound versus free insulin; format: in vivo, Female CD-1 Swiss white mice; details: subcutaneous, fasted mice
Experimental: Female CD-1 Swiss white mice averaging 20 g in weight were fasted overnight and used in groups of four. The insulins were injected subcutaneously, and blood specimens (50 microliters, by retro-orbital bleeding) were taken at intervals of 0.5, 3, 6, and 24 hours.

Question: With superoxide dismutase [unprotected SOD] as the substance, how does the “percent remaining in the solution (SOD activity)” value (trypsin) read?
Answer: about 8%

Question: What about the “SOD remaining after pepsin digestion” value (pepsin) of the same substance?
Answer: essentially all destroyed

Question: What about the “half-life in the body” value [1] of the same substance?
Answer: about five

Question: Which results are given for insulin [free insulin]?
Answer: blood glucose level at 24 hours (blood glucose levels; all dose levels, 24 hours): significant rebound glucose level by 24 hours; comatose state (blood glucose levels; doses of 5.7 micrograms and above): comatose in one-half hour; half-life in the body [1]: about 15 minutes
